B1: MLH1 (parent)
chain: YNIATRRKALKNPSEEYGKILEVV
B2: NP_015628.1 (parent)
chain: EQRNSRWNTVLRAVKAKTHHLEP

Variants of: B1
Assay: protein stability index of a GFP-peptide fusion (GPS, HEK-293T) (PSI 1-6); higher = more stable
Conditions: c terminus: a fixed tail appended

Protein stability index of substitutions, site by site:
V24: F 2.98 | A 3.79 | K 3.77 | N 3.64 | G 3.32 | E 3.98 | Q 3.52 | H 3.11 | D 3.66 | L 2.45 | P 4.07 | C 3.37 | W 1.96
V23: E 4.21 | Y 2.5 | S 3.66 | D 3.65 | C 3.03 | F 2.1 | G 3.62 | R 3.22 | Q 3.34 | A 3.69 | N 3.43 | I 2.5 | H 3.69 | P 3.41 | K 3.36 | T 2.97
E22: M 2.09 | A 2.59 | G 2.42 | C 1.75 | Q 2.42 | V 3.63 | K 2.18 | D 3.33 | F 2.32 | L 2.54 | H 2.43 | T 2.19 | Y 2.27 | P 2.49
L21: S 3.76 | W 2.34 | V 3.34 | Y 2.46 | T 3.91

Variants of: B2
Assay: as above
Conditions: c terminus: native

Protein stability index, by site and new letter:
S5: L 2.48 | V 2.43 | M 2.4 | F 2.61 | K 2.28 | R 2.42 | D 2.96 | E 2.91 | T 2.93 | H 2.62 | A 2.67 | G 3.32 | Y 2.38 | C 2.46 | P 2.78 | Q 2.67 | W 2.46
R6: C 2.45 | S 2.4 | G 3.11 | W 2.07 | P 2.51 | Q 2.62 | T 2.48 | V 3.23 | H 3.45 | E 3.39 | L 2.97 | I 3.4 | A 2.85 | Y 2.94 | N 2.67 | M 2.72 | K 2.67 | D 2.7 | F 3.03
N4: K 2.67 | V 2.96 | L 2.87 | H 2.48 | S 3.05 | C 2.73 | T 3.23 | Q 3.1 | D 3.22 | M 2.94 | A 2.5 | I 2.94 | W 2.4 | P 2.67 | R 2.96 | F 3.17 | E 3.37 | G 3.71 | Y 3.16
R3: D 3.97 | M 3.25 | V 2.99 | Y 3.7 | K 2.79 | P 3.25 | L 3.23 | I 3.09 | E 3.33 | H 2.99 | Q 2.71 | A 3.25 | G 3.58 | F 3.35 | C 3.3 | W 2.7 | S 3.47 | T 2.9 | N 3.07
K15: H 3.22 | T 2.99 | V 3.11 | R 3.08 | E 3.25 | Y 3.25 | F 2.9 | P 3.14 | N 3.17 | I 3.1 | C 3.1 | G 3.31 | W 3.24 | D 3.21 | S 3.26 | M 3.33 | A 3.24 | Q 3.05 | L 3.07
A13: E 2.24 | N 3.06 | R 2.57 | K 2.87 | M 3.28 | W 2.93 | Q 2.7 | L 2.69 | I 2.66 | S 3 | T 2.97 | C 3.08 | D 2.78 | G 2.89 | H 2.94 | F 2.52 | Y 3.1
E1: H 2.91 | Q 3.13 | P 2.74 | I 2.79 | T 2.27 | F 2.52 | S 2.4 | N 2.91 | Y 3.33 | G 2.9 | C 2.79 | V 2.65 | K 2.12 | A 2.66 | M 2.95 | W 2.94 | R 3.15 | L 2.87
Q2: P 3.06 | H 3.12 | A 2.98 | V 2.76 | C 2.93 | K 2.71 | R 2.9 | N 2.88 | G 2.74 | F 3.02 | W 2.78 | D 3.43 | S 2.87 | L 2.84 | Y 2.97 | E 3.55 | M 3.12 | T 2.38 | I 3.24
N8: M 2.15 | R 2.53 | P 3.65 | V 3 | H 2.64 | Q 2.06 | F 2.8 | L 2.29 | T 2.16 | Y 2.61 | D 2.52 | I 2.6 | E 1.92 | W 2.78 | A 1.94 | C 2.01 | G 2.49 | S 2.28
V14: H 3.06 | N 3.1 | S 3.28 | D 2.89 | R 2.96 | C 2.73 | F 2.87 | G 3.31 | Q 2.85 | Y 2.87 | L 3.05 | A 3.23 | W 3.26 | M 3.07 | I 3.37 | P 2.73 | T 2.97 | K 3.44 | E 2.45
T9: I 3.02 | Y 2.23 | N 3.3 | C 3 | Q 3 | W 2.3 | A 3.31 | D 2.29 | G 3.94 | E 2.38 | M 3.04 | S 3.31 | R 4.1 | L 2.91 | V 2.74 | F 1.99 | P 4.6 | H 2.38
V10: E 3.92 | M 2.89 | S 3.63 | F 2.74 | P 4.13 | I 2.92 | C 3.99 | N 3.76 | Q 3.25 | W 2.78 | D 4.65 | A 3.52 | Y 2.53 | K 3.15 | R 2.77 | T 3.15 | H 2.81
W7: D 5.12 | N 4.83 | G 5.71 | F 4.71 | H 5.21 | R 5.19 | T 5.14 | K 5.46 | S 5.32 | V 4.88 | C 5.2 | M 5.33 | A 5.18 | L 4.66
R12: C 2.74 | N 3.21 | G 2.78 | Y 2.5 | T 3.07 | A 2.77 | E 2.79 | L 2.76 | Q 2.71 | F 2.41 | I 2.46 | V 2.47 | D 2.44 | K 2.97 | W 2.67 | M 2.8 | P 3.05 | S 2.57 | H 2.98
A16: Q 2.99 | D 2.82 | N 2.35 | R 2.77 | H 2.98 | V 2.95 | T 2.78 | I 2.73 | M 2.9 | W 2.92 | P 2.78 | E 2.37 | S 3.24 | G 2.77 | F 3.02
L11: C 2.47 | A 3.95 | T 3.12 | S 4.1 | M 3.19 | V 2.5 | F 3.9 | R 5.15 | Q 4.63 | Y 3.5 | P 5.12 | D 4.52 | K 4.86 | G 4.32 | W 3.69 | N 4.51 | I 2.51 | E 4.36 | H 4.49

— the supplement of paper PMC10567573
